The experiment deals with mutant connector conjugated with a Strep-tag to its C-terminal. As to the kind of experiment: cell-based or functional assay.

Among the data in patent US20170343530A1 are three discrete steps of channel change (conductance assay) values, retold here.

Substance “streptavidin (coated on nanogold) (from UniProt P22629 37-163)” registered a three discrete steps of channel change (conductance assay) of 32%.
